The values that follow come from patent US20250263469A1 (HOSPITAL FOR SICK CHILDREN, published 2025).

For assay [1], the target named is T1, mouse FcRn (mouse, UniProt Q61559 22-297; P01887 21-119).
T1 sequence (looked up) 1: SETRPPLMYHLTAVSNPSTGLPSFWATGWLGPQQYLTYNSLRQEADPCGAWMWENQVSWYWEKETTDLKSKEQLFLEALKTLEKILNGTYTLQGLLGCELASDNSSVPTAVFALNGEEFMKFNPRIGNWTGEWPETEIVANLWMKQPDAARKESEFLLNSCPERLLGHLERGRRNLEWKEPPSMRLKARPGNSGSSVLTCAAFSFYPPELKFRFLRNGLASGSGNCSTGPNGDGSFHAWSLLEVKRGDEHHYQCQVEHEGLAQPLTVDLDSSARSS
T1 sequence (looked up) 2: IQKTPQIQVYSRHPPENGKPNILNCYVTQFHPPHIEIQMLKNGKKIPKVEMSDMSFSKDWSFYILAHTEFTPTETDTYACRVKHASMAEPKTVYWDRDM

The target in assay [2] is T1, mouse FcRn. Nature of the assay: pH 5.6.

B1: mouse surrogate Multabody (HD37, mouse ferritin), LALAP Fc (other, not shown: a dimerising Fc or GST; large carriers; small tags and cut ends)
chain 1: KPCPPCKCPAPNAAGGPSVFIFPPKIKDVLMISLSPIVTCVVVDVSEDDPDVQISWFVNNVEVHTAQTQTHREDYNSTLRVVSALPIQHQDWMSGKEFKCKVNNKDLGAPIERTISKPKGSVRAPQVYVLPPPEEEMTKKQVTLTCMVTDFMPEDIYVEWTNNGKTELNYKNTEPVLDSDGSYFMYSKLRVEKKNWVERNSYSCSVVHEGLHNHHTTKSFSRTPGKGGSSGSGSGSTGTSSSGTGTSAGTTGTSASTSGSGSGGGGGSGGGGSAGGTATAGASSGSGSSGSSSSGGTGKPCPPCKCPAPNAAGGPSVFIFPPKIKDVLMISLSPIVTCVVVDVSEDDPDVQISWFVNNVEVHTAQTQTHREDYNSTLRVVSALPIQHQDWMSGKEFKCKVNNKDLGAPIERTISKPKGSVRAPQVYVLPPPEEEMTKKQVTLTCMVTDFMPEDIYVEWTNNGKTELNYKNTEPVLDSDGSYFMYSKLRVEKKNWVERNSYSCSVVHEGLHNHHTTKSFSRTPGKSRASTASSASSGGGGGGSGGSGGSGGSMTSQIRQNYSTEVEAAVNRLVNLHLRASYTYLSLGFFFDRDDVALEGVGHFFRELAEEKREGAERLLEFQNDRGGRALFQDVQKPSQDEWGKTQEAMEAALAMEKNLNQALLDLHALGSARTDPHLCDFLESHYLDKEVKLIKKMGNHLTNLRRVAGPQPAQTGAPQGSLGEYLFERLTLKHD
chain 2: MTSQIRQNYSTEVEAAVNRLVNLHLRASYTYLSLGFFFDRDDVALEGVGHFFRELAEEKREGAERLLEFQNDRGGRALFQDVQKPSQDEWGKTQEAMEAALAMEKNLNQALLDLHALGSARTDPHLCDFLESHYLDKEVKLIKKMGNHLTNLRRVAGPQPAQTGAPQGSLGEYLFERLTLKHD
notes: also called mLALAP MB; Fc-modified MB (LALAP mutation)
For B1, the kon with mouse FcRn [1] is 2.4e+06 M⁻¹ s⁻¹. Further, in the assay with mouse FcRn [2], the dissociation constant (Kd) is less than 1 pM and the dissociation rate constant (koff) is less than 1e-07 s⁻¹.

What is called kon is the rate constant with which the complex forms. Read a high kon as fast association. As usually defined, the Kd is the free concentration of one partner at which half of the binding sites on the other are occupied at equilibrium, for simple one-to-one binding. Higher therefore signals weaker binding. As usually defined, the koff is the first-order rate constant of dissociation. A lower koff goes with slow dissociation.
